Measured values reported in US20240327530A1 (ICHNOS SCIENCES, published 2024).

T1: Recombinant human IL-1RAP-ECD(S21-E359)-avi-his protein (human, UniProt Q9NPH3 21-359)
T1 construct: Biotinylated where loaded on streptavidin; also called human IL-1RAP-ECD-Avi-His; recombinant human IL-1RAP-avi-his protein
T1 sequence: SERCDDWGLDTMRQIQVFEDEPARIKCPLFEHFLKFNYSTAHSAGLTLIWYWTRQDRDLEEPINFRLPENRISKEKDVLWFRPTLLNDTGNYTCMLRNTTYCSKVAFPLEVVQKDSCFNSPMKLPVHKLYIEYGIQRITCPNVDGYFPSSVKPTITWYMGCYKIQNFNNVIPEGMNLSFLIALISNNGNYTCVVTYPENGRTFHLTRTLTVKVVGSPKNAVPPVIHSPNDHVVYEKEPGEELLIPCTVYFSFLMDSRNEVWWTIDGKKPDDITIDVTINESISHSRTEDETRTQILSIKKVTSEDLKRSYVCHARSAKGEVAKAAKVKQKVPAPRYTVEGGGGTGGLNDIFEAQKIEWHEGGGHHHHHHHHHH

T2: Recombinant cynomolgus monkey IL-1RAP-ECD(S21-E359)-avi-his protein (cynomolgus monkey, UniProt P59822 21-359 (rhesus entry))
T2 construct: also called cyno IL-1RAP-ECD-Avi-His; recombinant cynomolgus monkey IL-1RAP-avi-his protein
T2 sequence: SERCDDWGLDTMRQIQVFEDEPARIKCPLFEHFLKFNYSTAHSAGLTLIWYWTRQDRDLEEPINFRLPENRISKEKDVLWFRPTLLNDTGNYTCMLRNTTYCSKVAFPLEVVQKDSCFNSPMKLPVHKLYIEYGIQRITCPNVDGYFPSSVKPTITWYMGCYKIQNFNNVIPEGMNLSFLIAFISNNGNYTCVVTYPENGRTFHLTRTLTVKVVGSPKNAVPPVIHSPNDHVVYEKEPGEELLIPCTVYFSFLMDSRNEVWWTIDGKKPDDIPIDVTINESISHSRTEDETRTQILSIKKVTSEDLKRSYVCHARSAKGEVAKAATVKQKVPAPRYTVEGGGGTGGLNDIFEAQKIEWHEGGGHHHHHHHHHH

T3: Recombinant human IL-1RAP Fc fusion protein (Acrobiosystems, catalog no. ILP-H5256) (human, UniProt Q9NPH3 21-359, limits assumed)
T3 construct: Bought; not shown: Fc part of the bought fusion protein
T3 sequence: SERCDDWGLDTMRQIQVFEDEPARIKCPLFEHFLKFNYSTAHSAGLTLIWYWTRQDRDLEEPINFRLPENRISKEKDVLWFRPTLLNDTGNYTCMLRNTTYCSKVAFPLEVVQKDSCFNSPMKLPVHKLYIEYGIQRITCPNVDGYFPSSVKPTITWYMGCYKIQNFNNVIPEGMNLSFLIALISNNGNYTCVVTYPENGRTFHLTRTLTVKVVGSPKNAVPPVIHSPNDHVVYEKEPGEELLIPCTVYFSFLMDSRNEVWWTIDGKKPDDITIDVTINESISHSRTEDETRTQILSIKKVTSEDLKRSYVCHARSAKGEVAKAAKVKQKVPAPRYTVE

B1: Anti-IL-1RAP-C8-recC IgG1 LALA (antibody, V domains shown)
VH: QVQLVQSGAEVKKPGSSVKVSCKASGSPAEPYAIQWVRQAPGQGLEWMGYIIPSLGGYDYAQKFQGRVTITADESTSTAYMELSSLRSEDTAVYYCARGQTLYDSGRQFDIWGQGTLVTVSS
VL: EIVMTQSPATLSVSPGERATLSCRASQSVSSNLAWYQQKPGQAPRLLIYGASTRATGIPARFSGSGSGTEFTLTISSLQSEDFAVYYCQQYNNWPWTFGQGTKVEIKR
notes: Human IgG1 with L234A/L235A (EU); whether it is the full heavy chain or only VH is not clear; also called ISB 880-C8-recC
B2: Anti-IL-1RAP-C8-H1B-B10-Fab (Fab, V domains shown)
VH: QVQLVQSGAEVKKPGSSVKVSCKASGVTHTSYAIQWVRQAPGQGLEWMGYIIPLHGQVDYAQKFQGRVTITADESTSTAYMELSSLRSEDTAVYYCARGQTLYDSGRQFDIWGQGTLVTVSS
VL: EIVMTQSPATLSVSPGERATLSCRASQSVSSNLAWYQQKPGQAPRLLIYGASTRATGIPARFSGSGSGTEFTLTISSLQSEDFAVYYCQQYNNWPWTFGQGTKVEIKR
B3: Anti-IL-1RAP-C8-recA-Fab (Fab, V domains shown)
VH: QVQLVQSGAEVKKPGSSVKVSCKASGSTWEPYAIQWVRQAPGQGLEWMGYIIPSLGGYDYAQKFQGRVTITADESTSTAYMELSSLRSEDTAVYYCARGQTLYDSGRQFDIWGQGTLVTVSS
VL: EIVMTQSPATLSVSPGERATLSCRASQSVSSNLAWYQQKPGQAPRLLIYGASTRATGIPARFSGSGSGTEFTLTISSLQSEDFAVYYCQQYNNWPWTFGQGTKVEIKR
B4: Anti-IL-1RAP-C8-RecC-DA-IgG1LALA (antibody, V domains shown)
VH: QVQLVQSGAEVKKPGSSVKVSCKASGSPAEPYAIQWVRQAPGQGLEWMGYIIPSLGGYDYAQKFQGRVTITADESTSTAYMELSSLRSEDTAVYYCARGQTLYDAGRQFDIWGQGTLVTVSS
VL: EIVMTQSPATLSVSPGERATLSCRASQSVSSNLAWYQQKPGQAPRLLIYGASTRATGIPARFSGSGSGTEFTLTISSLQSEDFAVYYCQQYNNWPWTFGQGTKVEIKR
notes: Human IgG1 LALA; D100/S100a (Kabat) of RecC replaced by DA; also called ISB 880-C8-recC-DA
B5: Anti-IL-1RAP-C8-H1B-G10-Fab (Fab, V domains shown)
VH: QVQLVQSGAEVKKPGSSVKVSCKASGGPRRAYAIQWVRQAPGQGLEWMGYIIPLHGQVDYAQKFQGRVTITADESTSTAYMELSSLRSEDTAVYYCARGQTLYDSGRQFDIWGQGTLVTVSS
VL: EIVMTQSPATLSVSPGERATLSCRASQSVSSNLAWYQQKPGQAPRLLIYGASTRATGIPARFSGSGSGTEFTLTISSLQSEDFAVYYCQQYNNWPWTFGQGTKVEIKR
B6: Anti-IL-1RAP-C8-H1B-H10-Fab (Fab, V domains shown)
VH: QVQLVQSGAEVKKPGSSVKVSCKASGSTWEPYAIQWVRQAPGQGLEWMGYIIPLHGQVDYAQKFQGRVTITADESTSTAYMELSSLRSEDTAVYYCARGQTLYDSGRQFDIWGQGTLVTVSS
VL: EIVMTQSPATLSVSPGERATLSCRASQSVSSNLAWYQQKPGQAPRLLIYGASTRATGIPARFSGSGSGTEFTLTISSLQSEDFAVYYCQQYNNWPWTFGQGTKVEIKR
B7: Anti-IL-1RAP-C8-H1B-E7-Fab (Fab, V domains shown)
VH: QVQLVQSGAEVKKPGSSVKVSCKASGSKHGNYAIQWVRQAPGQGLEWMGYIIPLHGQVDYAQKFQGRVTITADESTSTAYMELSSLRSEDTAVYYCARGQTLYDSGRQFDIWGQGTLVTVSS
VL: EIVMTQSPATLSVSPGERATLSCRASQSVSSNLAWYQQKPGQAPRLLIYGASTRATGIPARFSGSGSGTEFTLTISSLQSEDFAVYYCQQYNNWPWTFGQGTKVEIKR
B8: Anti-IL-1RAP-C8-H1B-D8-Fab (Fab, V domains shown)
VH: QVQLVQSGAEVKKPGSSVKVSCKASGPSNPVYAIQWVRQAPGQGLEWMGYIIPLHGQVDYAQKFQGRVTITADESTSTAYMELSSLRSEDTAVYYCARGQTLYDSGRQFDIWGQGTLVTVSS
VL: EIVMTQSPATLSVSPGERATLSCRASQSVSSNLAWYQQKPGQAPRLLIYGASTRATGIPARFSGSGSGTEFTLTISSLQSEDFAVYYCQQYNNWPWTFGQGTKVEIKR
B9: Anti-IL-1RAP-C8-RecC-ET-IgG1LALA (antibody, V domains shown)
VH: QVQLVQSGAEVKKPGSSVKVSCKASGSPAEPYAIQWVRQAPGQGLEWMGYIIPSLGGYDYAQKFQGRVTITADESTSTAYMELSSLRSEDTAVYYCARGQTLYETGRQFDIWGQGTLVTVSS
VL: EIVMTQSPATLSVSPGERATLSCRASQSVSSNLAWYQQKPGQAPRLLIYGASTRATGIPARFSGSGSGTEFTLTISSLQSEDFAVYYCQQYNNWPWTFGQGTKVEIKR
notes: Human IgG1 LALA; also called ISB 880-C8-recC-ET
B10: Anti-IL-1RAP-C8-H1B-F3-Fab (Fab, V domains shown)
VH: QVQLVQSGAEVKKPGSSVKVSCKASGGPHTAHAIQWVRQAPGQGLEWMGYIIPLHGQVDYAQKFQGRVTITADESTSTAYMELSSLRSEDTAVYYCARGQTLYDSGRQFDIWGQGTLVTVSS
VL: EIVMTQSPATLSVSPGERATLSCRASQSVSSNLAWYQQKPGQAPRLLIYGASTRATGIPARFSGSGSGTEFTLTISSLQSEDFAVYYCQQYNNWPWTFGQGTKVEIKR
B11: Anti-IL-1RAP-C8-H2B-B5-Fab (Fab, V domains shown)
VH: QVQLVQSGAEVKKPGSSVKVSCKASGGQFSEYAIQWVRQAPGQGLEWMGYIIPTVGGFDYAQKFQGRVTITADESTSTAYMELSSLRSEDTAVYYCARGQTLYDSGRQFDIWGQGTLVTVSS
VL: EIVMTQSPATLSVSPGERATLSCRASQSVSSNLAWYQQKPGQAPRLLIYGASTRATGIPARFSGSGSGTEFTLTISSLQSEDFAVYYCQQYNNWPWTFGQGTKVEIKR
B12: Anti-IL-1RAP-C8-recB-Fab (Fab, V domains shown)
VH: QVQLVQSGAEVKKPGSSVKVSCKASGGPRRAYAIQWVRQAPGQGLEWMGYIIPSLGGYDYAQKFQGRVTITADESTSTAYMELSSLRSEDTAVYYCARGQTLYDSGRQFDIWGQGTLVTVSS
VL: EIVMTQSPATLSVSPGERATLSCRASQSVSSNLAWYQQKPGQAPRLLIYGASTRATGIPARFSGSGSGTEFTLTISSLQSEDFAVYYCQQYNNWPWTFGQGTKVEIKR
B13: Anti-IL-1RAP-C8-RecC-AA-IgG1LALA (antibody, V domains shown)
VH: QVQLVQSGAEVKKPGSSVKVSCKASGSPAEPYAIQWVRQAPGQGLEWMGYIIPSLGGYDYAQKFQGRVTITADESTSTAYMELSSLRSEDTAVYYCARGQTLYAAGRQFDIWGQGTLVTVSS
VL: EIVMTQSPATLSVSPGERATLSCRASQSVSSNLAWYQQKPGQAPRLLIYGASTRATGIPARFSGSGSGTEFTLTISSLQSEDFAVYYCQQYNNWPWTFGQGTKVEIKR
notes: Human IgG1 LALA; also called ISB 880-C8-recC-AA
B14: Anti-IL-1RAP-C8-H2B-C10-Fab (Fab, V domains shown)
VH: QVQLVQSGAEVKKPGSSVKVSCKASGGQFSEYAIQWVRQAPGQGLEWMGYIIPSLGGYDYAQKFQGRVTITADESTSTAYMELSSLRSEDTAVYYCARGQTLYDSGRQFDIWGQGTLVTVSS
VL: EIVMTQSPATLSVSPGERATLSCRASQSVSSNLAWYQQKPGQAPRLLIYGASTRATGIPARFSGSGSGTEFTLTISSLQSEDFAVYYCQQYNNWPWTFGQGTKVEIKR
notes: also called ISB 880-C8-H2B-C10
B15: Anti-IL-1RAP-C8-RecC-AS-IgG1LALA (antibody, V domains shown)
VH: QVQLVQSGAEVKKPGSSVKVSCKASGSPAEPYAIQWVRQAPGQGLEWMGYIIPSLGGYDYAQKFQGRVTITADESTSTAYMELSSLRSEDTAVYYCARGQTLYASGRQFDIWGQGTLVTVSS
VL: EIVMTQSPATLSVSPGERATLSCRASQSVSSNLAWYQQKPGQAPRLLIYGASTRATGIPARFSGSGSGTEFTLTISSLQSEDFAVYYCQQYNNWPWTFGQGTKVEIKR
notes: Human IgG1 LALA; D100/S100a (Kabat) of RecC replaced by AS; also called ISB 880-C8-recC-AS
B16: Anti-IL-1RAP-C8-recC-Fab (Fab, V domains shown)
VH: QVQLVQSGAEVKKPGSSVKVSCKASGSPAEPYAIQWVRQAPGQGLEWMGYIIPSLGGYDYAQKFQGRVTITADESTSTAYMELSSLRSEDTAVYYCARGQTLYDSGRQFDIWGQGTLVTVSS
VL: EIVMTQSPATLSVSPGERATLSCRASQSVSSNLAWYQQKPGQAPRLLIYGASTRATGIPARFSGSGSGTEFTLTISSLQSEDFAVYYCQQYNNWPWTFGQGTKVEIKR
notes: also called Fab clone anti-IL-1RAP-C8-RecC

What was measured:
[1] = target: T1, Recombinant human …; assay: SPR, IgG1 LALA captured by anti-human Fc, human IL-1RAP-avi-his as analyte, 1:1 fit
Experimental: (§1) Surface plasmon resonance (SPR) was used to measure the binding affinities of the human IgG1 LALA molecules for human and cynomolgus monkey IL-1RAP. Affinities were measured on a BIACORE™ T200 instrument (BIACORE™, GE […]®) at 25° C. and analyzed with the BIACORE™ T200 Evaluation Software (v3.1). Measurements were performed on Series S CM5 sensor chips (BIACORE™ T200, BIACORE™, GE […]®, catalog no. BR100530) coupled with anti-human IgG Fc (BIACORE™, GE […]®, catalog no. BR100839) using a commercial amine coupling kit (BIACORE™, GE […]®, catalog no. BR100050). SPR measurements were performed with recombinant human IL-1RAP-avi-his protein produced in house (SEQ ID NO. 1) or recombinant cynomolgus monkey IL-1RAP-avi-his protein produced in house (SEQ ID NO. 2). The affinities to human and cynomolgus monkey IL-1RAP were assessed by immobilizing anti-IL-1RAP IgG1 LALA molecules and using IL-1RAP proteins as analyte. Around 150 RU of human IgG1 LALA were captured on fc2 of a Series S CM5 sensor chip coupled with anti-human IgG Fc. Recombinant human IL-1RAP-avi-his protein or recombinant cynomolgus monkey IL-1RAP-avi-his protein was injected in multi cycle kinetic at different concentrations ranging from 0.14 to 100 nM, in HBS-EP+ buffer (BIACORE™, GE […]®, catalog no. BR100669) at a flow rate of 30 μl/min for 3 min on fc1 and fc2 (fc1 being used as reference). Dissociation was monitored for 12 min. After each cycle, the surface was regenerated with 60 μl of regeneration solution provided with anti-human IgG Fc capture kit (BIACORE™, GE […]®, catalog no. BR100839). Experimental data were processed using the 1:1 Langmuir kinetic fitting model. Measurements included zero-concentration samples for referencing. Chi², U- and residual values were used to evaluate the quality of a fit between the experimental data and individual binding models.

[2] = target: T2, Recombinant cynomolgus monkey …; assay: SPR, IgG1 LALA captured by anti-human Fc, cyno IL-1RAP-avi-his as analyte, 1:1 fit
Experimental: as §1

[3] = target: T3, Recombinant human IL-1RAP Fc fusion …; assay: SPR, human IL-1RAP-Fc captured, Fab as analyte (0.08 to 50 nM)
Experimental: BR100669) at a flow rate of 30 μl/min for 3 min on fc1 and fc2 (fc1 being used as reference). Dissociation was monitored for 5 min. After each cycle, the surface was regenerated with 60 μl of regeneration solution provided with anti-human IgG Fc capture kit (BIACORE™, GE […]®, catalog no. BR100839) or BiotinCAPture kit (BIACORE™, GE […]®, catalog no. 28920234) respectively. Experimental data were processed using the 1:1 Langmuir kinetic fitting model. Measurements included zero-concentration samples for referencing. Chi², U- and residual values were used to evaluate the quality of a fit between the experimental data and individual binding models. […]

Binder | Kd [1] [nM] | koff [1] [s⁻¹] | kon [1] [M⁻¹ s⁻¹] | Kd [2] [nM] | koff [2] [s⁻¹] | kon [2] [M⁻¹ s⁻¹] | Kd [3] [nM]
B1 | 0.237 | 0.000199 | 840000 | 0.276 | 0.000236 | 854000 | –
B2 | – | – | – | – | – | – | 0.553
B3 | – | – | – | – | – | – | 0.051
B4 | 0.14 | 0.000162 | 1.16e+06 | 0.145 | 0.00019 | 1.31e+06 | –
B5 | – | – | – | – | – | – | 0.313
B6 | – | – | – | – | – | – | 0.209
B7 | – | – | – | – | – | – | 0.831
B8 | – | – | – | – | – | – | 0.476
B9 | 0.278 | 0.000253 | 916000 | 0.336 | 0.000308 | 916000 | –
B10 | – | – | – | – | – | – | 0.427
B11 | – | – | – | – | – | – | 1.37
B12 | – | – | – | – | – | – | 0.052
B13 | 0.267 | 0.000169 | 634000 | 0.24 | 0.000187 | 777000 | –
B14 | – | – | – | – | – | – | 0.589
B15 | 0.287 | 0.000161 | 561000 | 0.254 | 0.00016 | 628000 | –
B16 | – | – | – | – | – | – | 0.038
